Experimental findings from article PMC10406861 are described below.

The target of assay [1] is Histone H2A-H2B dimer (H2B T112C labeled with Cy5.5) (X. laevis) (UniProt P06897).
Assay [2] shares this target. The source holds these as a separate data set.

For “6xHis-Yeast nucleosome assembly protein 1 (Nap1) (from UniProt P25293 1-417) (natural protein)”, the rate constant of H2A-H2B exchange between nucleosomes containing H3KS56ac (three-color smFRET), in the presence of Nap1 in assay [1] is 1380 M⁻¹ s⁻¹. Besides, the rate constant of H2A-H2B exchange between CpG methylated nucleosomes (three-color smFRET), in the presence of Nap1 in assay [2] worked out at 626 M⁻¹ s⁻¹.
